From US20260085129A1 (ECO ANIMAL HEALTH, published 2026) come the findings set out here.

One test addresses T1, pCD163-SRCR1-9-huFc (porcine, UniProt Q2VL90 51-1028).
T1 construct: Limits 51-1028 are those the description gives for CD163-SRCR1-9; also called porcine CD163 SRCR1 to SRCR9 (no PST2) with human Fc; soluble CD163; not shown: human Fc (huFc)
T1 sequence: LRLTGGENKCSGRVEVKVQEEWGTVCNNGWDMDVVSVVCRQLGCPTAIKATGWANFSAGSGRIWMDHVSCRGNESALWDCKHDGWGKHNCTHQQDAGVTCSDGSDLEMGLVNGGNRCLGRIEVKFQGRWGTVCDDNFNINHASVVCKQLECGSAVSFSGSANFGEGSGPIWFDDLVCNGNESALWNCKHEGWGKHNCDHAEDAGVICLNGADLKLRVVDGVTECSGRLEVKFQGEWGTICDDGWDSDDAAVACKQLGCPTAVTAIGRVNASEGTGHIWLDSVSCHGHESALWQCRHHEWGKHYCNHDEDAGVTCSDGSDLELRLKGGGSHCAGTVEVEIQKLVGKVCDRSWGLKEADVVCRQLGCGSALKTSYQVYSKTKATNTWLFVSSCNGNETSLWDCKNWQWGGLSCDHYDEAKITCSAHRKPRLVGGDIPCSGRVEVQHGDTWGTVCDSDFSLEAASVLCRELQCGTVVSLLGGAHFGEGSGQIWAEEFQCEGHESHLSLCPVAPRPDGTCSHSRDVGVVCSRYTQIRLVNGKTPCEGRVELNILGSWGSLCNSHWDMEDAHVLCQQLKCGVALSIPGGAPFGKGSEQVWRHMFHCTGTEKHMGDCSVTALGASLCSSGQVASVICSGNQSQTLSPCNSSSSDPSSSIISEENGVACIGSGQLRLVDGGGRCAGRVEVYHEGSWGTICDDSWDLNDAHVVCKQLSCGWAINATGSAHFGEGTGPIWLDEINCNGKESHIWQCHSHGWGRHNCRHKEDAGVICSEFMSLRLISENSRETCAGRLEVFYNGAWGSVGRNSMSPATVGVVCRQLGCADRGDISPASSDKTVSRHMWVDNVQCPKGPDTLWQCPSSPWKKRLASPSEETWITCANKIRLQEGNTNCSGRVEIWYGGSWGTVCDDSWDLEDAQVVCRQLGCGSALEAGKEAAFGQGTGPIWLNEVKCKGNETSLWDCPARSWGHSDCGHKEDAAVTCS
Nature of the test: Biacore 3000 SPR, antigen amine-coupled on CM5 chip, pH 7.4.

For a further test, the target named is T2, pCD163-SRCR-FL-PST2-His (porcine, UniProt Q2VL90 51-1044).
T2 construct: also called pCD163-1-PST2-His; pCD163-SRCR1-PST2; not shown: His tag
T2 sequence: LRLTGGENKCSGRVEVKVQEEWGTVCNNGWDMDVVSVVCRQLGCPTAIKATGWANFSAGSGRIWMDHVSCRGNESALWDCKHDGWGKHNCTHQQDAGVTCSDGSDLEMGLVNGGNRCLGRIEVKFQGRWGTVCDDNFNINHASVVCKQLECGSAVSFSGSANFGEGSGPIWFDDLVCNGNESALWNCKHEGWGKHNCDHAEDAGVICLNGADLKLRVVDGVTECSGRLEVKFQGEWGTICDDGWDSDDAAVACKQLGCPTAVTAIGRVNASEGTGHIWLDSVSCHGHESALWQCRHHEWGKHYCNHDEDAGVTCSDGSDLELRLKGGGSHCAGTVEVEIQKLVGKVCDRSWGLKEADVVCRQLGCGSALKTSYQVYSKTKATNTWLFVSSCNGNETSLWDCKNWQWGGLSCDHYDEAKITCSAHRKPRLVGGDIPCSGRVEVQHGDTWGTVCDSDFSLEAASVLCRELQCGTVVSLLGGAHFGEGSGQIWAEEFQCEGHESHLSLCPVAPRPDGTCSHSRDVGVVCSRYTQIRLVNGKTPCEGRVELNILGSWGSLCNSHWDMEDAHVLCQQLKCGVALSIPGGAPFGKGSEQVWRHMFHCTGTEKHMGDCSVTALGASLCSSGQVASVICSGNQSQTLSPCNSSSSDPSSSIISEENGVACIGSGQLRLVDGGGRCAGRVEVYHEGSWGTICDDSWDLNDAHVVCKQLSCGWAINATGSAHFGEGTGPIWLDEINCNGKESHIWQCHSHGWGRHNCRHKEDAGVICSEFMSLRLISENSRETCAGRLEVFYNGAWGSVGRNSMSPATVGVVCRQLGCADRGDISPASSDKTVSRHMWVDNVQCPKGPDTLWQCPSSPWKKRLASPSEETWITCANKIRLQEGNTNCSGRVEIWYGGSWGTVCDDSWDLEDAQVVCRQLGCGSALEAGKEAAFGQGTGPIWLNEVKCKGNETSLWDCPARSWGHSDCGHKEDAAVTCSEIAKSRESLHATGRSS
Kind of test: Biacore 3000 SPR, antigen amine-coupled on CM5 chip, VHH 200-12.5 nM, pH 7.4, 1:1 binding with mass transfer. The procedure:
Surface plasmon resonance (SPR) (Biacore 3000, GE Healthcare) was used to determine the binding kinetics of selected single domain antibodies at pH7.4. Approximately 2075 to 2423 RUs of pCD163-SRCR1-9-huFc or 2859 to 3286 RUs of pCD163-1-PST2-His. respectively, at 20 or 30 μg/ml in Acetate buffer pH 5.0 or pH 5.5 were immobilized onto a CM5 chip using the standard amine coupling procedure.
1×HBS-EP pH 7.4, was utilized as a running buffer during binding kinetic measurements. Purified VHH were injected at 2-fold dilution from 200 nM down to 12.5 nM in HBS-EP pH 7.4, at 30 μl/min for 2 minutes, followed by an off-rate wash for 1 min between injections. Off-rate wash was 300s after the last concentration injection in each cycle. RU levels were restored to base levels after regeneration with two injections of 10 μl of 1 M NaCl, 1 mM Glycine pH 1.5 between samples.
Fitting 1:1 binding with mass transfer was applied to the set of sample curves using the simultaneous fitting option of the BIAevaluation software to calculate the kinetic constants of the antibody-antigen interactions including association rate (ka), dissociation rate (kd) and affinity (KD). Curves were removed from the fitting after visual examination of the residuals and considering the value of Chi2: a minimum of 4 curves were considered for the simultaneous fitting.

B1: Clone 39-H17B11 VHH antibody (VHH)
VHH: QVQLVESGGGLVQAGGSLRLSCAASGRTFSSYAMGWFRQTPGKDREFVARIGWTGGTTIYADSVKGRFTISRDNAKNTVYLQMNSLKPEDTAVYYCAADQAGWRTAGVRNTYEYDYWGQGTQVTVSS
notes: Llama single domain antibody; also called clone 17B11; not shown: tags: c-myc tag on the soluble VHH in periplasmic extracts; FLAG and His tags on the purified VHH
In the case of B1, the binding result in the test with pCD163-SRCR1-9-huFc was “no binding (tested: 200 nM (highest VHH concentration))”. In the test with pCD163-SRCR-FL-PST2-His, this molecule gave a dissociation constant (Kd) of 255 µM, a koff of 0.281 s⁻¹ and a kon of 1100 M⁻¹ s⁻¹.

One may read the Kd as a measure of binding affinity in units of concentration. Read a high Kd as weaker binding. Broadly, the koff is the rate constant with which the complex falls apart. A lower koff goes with a long-lived complex. A word on the kon: it is the rate constant with which the complex forms.
